Experimental data as given in PMC7994445, “The actomyosin interface contains an evolutionary conserved core and an ancillary interface involved in specificity” (Nature Communications, 2021).

What was measured:
[1] = biological target: T1, PfMyoA motor domain (amino acids 1-K768) with a T417D mutation (Plasmodium falciparum, UniProt Q8IDR3 1-768, T417D); test: cryo-EM structure; PfMyoA motor domain T417D incubated in solution with JAS-stabilized PfAct1 filaments, vitrified within 15 min; nucleotide-free (Rigor) state; helical reconstruction at 3.8 Å; settings: both partners purified
T1 construct: Plasmodium falciparum myosin A (PfMyoA) heavy chain, motor domain, amino acids 1-K768, with the phosphomimetic mutation T417D (TEDS site, HCM loop); Residue K768 is followed by a Gly-Ser linker and the C-terminal FLAG tag; Nucleotide-free (Rigor) in the structure; also called PfMD; PfMyoA motor-domain construct with a T417D mutation
T1 sequence: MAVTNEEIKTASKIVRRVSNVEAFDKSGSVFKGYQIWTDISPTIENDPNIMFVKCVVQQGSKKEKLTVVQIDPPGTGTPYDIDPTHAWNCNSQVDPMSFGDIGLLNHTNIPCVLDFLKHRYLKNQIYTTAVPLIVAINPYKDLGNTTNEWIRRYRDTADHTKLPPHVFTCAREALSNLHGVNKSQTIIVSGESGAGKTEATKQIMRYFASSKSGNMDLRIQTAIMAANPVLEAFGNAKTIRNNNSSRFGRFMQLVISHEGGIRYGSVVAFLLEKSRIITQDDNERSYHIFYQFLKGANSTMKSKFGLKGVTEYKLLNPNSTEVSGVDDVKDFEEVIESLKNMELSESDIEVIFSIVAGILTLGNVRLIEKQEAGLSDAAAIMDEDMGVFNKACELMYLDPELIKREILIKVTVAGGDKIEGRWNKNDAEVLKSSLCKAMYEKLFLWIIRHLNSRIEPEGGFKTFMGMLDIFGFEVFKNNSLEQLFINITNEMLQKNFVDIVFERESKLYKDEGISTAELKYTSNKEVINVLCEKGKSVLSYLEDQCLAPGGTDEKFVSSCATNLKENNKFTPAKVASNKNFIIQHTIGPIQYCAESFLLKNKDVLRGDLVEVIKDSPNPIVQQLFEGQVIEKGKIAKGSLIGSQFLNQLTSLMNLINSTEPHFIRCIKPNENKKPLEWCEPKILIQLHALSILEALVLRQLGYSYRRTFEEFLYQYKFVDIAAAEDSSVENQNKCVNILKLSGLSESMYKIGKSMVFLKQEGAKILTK

[2] = biological target: the molecule itself; test: as above

B1: PfActin-1 filaments (natural protein)
chain: not shown
notes: Plasmodium falciparum actin-1; ends at the final native Phe after chymotrypsin cleavage; Filamentous; unstabilised filaments were used in one motility condition; also called PfAct1; P. falciparum actin 1; not shown: His6, C-terminal, cleaved
binding result [1]: binds
binding result [2]: binds
